Target: T1, human claudin-4 (residues 1-183), tag-free (human, UniProt O14493 1-183)
T1 construct: also called tag-free claudin-4
T1 sequence (looked up): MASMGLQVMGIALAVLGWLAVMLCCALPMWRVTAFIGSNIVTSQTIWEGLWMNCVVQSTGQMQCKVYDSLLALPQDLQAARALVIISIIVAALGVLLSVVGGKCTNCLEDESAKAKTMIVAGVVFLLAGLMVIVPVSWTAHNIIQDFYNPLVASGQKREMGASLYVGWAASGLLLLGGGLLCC
Experiment: SPR
Conditions: both partners purified

B1: GST-tagged C-CPE (C-terminal fragment of Clostridium perfringens enterotoxin, residues 185-319) (domain or fragment)
chain: RCVLTVPSTDIEKEILDLAAATERLNLTDALNSNPAGNLYDWRSSNSYPWTQKLNLHLTITATGQKYRILASKIVDFNIYSNNFNNLVKLEQSLGDGVKDHYVDISLDAGQYVLVMKANSSYSGNYPYSILFQKF
Kd: 3.4 nM

Source: PMC4964339 (Scientific Reports, 2016)
